120 sequences from the supplement of paper PMC10126150 can be followed below.

The test system of this data set is ATP. In words: switch fluorescence ratio, 500 uM ATP over buffer (Cy3 cluster intensity, sum of 5 cycles each) (fold (ratio)); higher = stronger signal-on switching upon ATP binding; sequences stand for … in TCGTCGGCAGCGTCAGATGTGTATAAGAGACAGTTTTTTTTTTTTTTTTTTTTTTTTT…TC. Particulars: aptamer strand: ATP DNA aptamer (quencher-CACCTGGGGGAGTATTGCGGAGGAAGG + anchor), 100 nM annealed; ATP concentration: 500 uM. Summed up:
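Exposure to 500 uM ATP lasted 15 min at 22 °C before imaging, and a selection-buffer image was taken beforehand, for Cy3-labelled switching-strand clusters on a modified Illumina MiSeq flow-cell annealed to 100 nM quencher-labelled ATP aptamer. Five buffer/ATP cycles were run with NaOH stripping and re-annealing between them. The fluorescence ratio per cluster is summed target-cycle over summed buffer-cycle Cy3 intensity, averaged per switch-domain sequence. Clusters outside 100-1000 RFU were excluded.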

± gives the standard deviation of the averaged measurements.

For CGCAGCCCAG, the switch fluorescence ratio is 1.58 ± 0.086.
As for TGCGGGATTA, the switch fluorescence ratio was 1.1 ± 0.18.
Then CGGGCAGCGT, with 0.986 ± 0.0076; and AACCTTTATA, with 1.01 ± 0.012; and GGGTCATGAT, with 1.01 ± 0.021.
For AAGCAAGGGA, the switch fluorescence ratio came to 1.065 ± 0.01.
For TTGAGTTTAC the value was 1.058 ± 0.0028; for ACGATTTTGC, 1.04 ± 0.033; for GTGGCTGGG, 0.988 ± 0.038.
Then ATCGGGGGGT, with 1.01 ± 0.035; and GGTGTGCATG, with 0.99 ± 0.053.
For TCAGCTGGGA the value was 1 ± 0.026; for TTTCTAATGC, 1.03 ± 0.014; for TCAGTAGAGA, 0.995 ± 0.018.
TTAAATTGCT: the switch fluorescence ratio stood at 0.991 ± 0.025.
For AGATTTTGCG the value was 0.991 ± 0.01.
AGCATGTAGA: the switch fluorescence ratio is 0.989 ± 0.046.
With TTGGTGGAAG, the switch fluorescence ratio stood at 1.02 ± 0.0057.
For GTGAGAGAGT the value was 0.962 ± 0.015.
For TAGATCTGGG the value was 1.002 ± 0.0072; for AGTTTTACAA, 1.03 ± 0.012; for TAAAAGCCTG, 1.02 ± 0.052.
For the sequence GAGGTCATTG, the switch fluorescence ratio is 0.9996 ± 0.0018.
Then CAGAACAAAA, with 1.03 ± 0.035; and TTGGGGAAGT, with 0.994 ± 0.039.
For CAACTACGGC the value was 1.09 ± 0.05; for TTTGCTTTTA, 1.04 ± 0.023.
Then CGCTAGGGAA, with 1.03 ± 0.045; and TATGGGTGCC, with 0.9771 ± 0.0042.
For AAAGAGTGTG, the switch fluorescence ratio stood at 0.988 ± 0.037.
Consider AATCGGGGGA, for which the switch fluorescence ratio stood at 1.01 ± 0.048.
Then AGGTCCCGTT, with 0.993 ± 0.036; and ATAGGTTGGG, with 0.996 ± 0.03.
Take TTGATGAAAT: the switch fluorescence ratio is 0.984 ± 0.014.
On to ATTTCGGTGC, for which the switch fluorescence ratio was found to be 1.1 ± 0.17.
Then GTTACTGTGG, with 0.9663 ± 0.005; and GTCTTGGGTG, with 1.02 ± 0.019.
Then GTTGTAGTGT, with 1.011 ± 0.0011.
With TTGAAGTCTA, the switch fluorescence ratio was found to be 0.992 ± 0.027.
For CCAACTTTTT the value was 0.962 ± 0.014; for GCTACGGTAT, 1.13 ± 0.07.
For ATGTCTAAAA the value was 0.9887 ± 0.0065; for AGTCTTTTTT, 1 ± 0.0038; for ATTTGGCCGG, 1.01 ± 0.04.
Take GGATTCATTT: the switch fluorescence ratio amounted to 1.054 ± 0.0087.
As for AGATCGGTTT, the switch fluorescence ratio was determined as 1 ± 0.042.
Then ATGCCAGCGC, with 1.02 ± 0.025; and TAGGGTCTGG, with 0.991 ± 0.04; and TAATCCTAGT, with 0.997 ± 0.036.
Then GTTGGGGTGG, with 1.04 ± 0.12; and GCGGTAGTCG, with 1.02 ± 0.052; and CATGTGGGGA, with 1.021 ± 0.004.
Then GGCCTTGTCG, with 1.06 ± 0.046.
Consider CAATAGTTGT, for which the switch fluorescence ratio turned out to be 0.996 ± 0.029.
As to GGCTTGGTTA, the switch fluorescence ratio stood at 1.02 ± 0.015.
Then TTCGAGTGTC, with 1.05 ± 0.034; and TTGAAGGTTA, with 0.99 ± 0.016; and CATTGGTGGC, with 0.992 ± 0.1.
For TAAGGTATGT the value was 1.03 ± 0.026; for TGGCGTAGTA, 1.01 ± 0.051; for GCGGGGCAAC, 1.01 ± 0.064.
Take TCGGTAGTTA: the switch fluorescence ratio worked out at 1.01 ± 0.047.
Then AGGTTGTGGT, with 1.01 ± 0.016; and AATGTCTAGA, with 0.975 ± 0.023.
As to TGGGGCGTAT, the switch fluorescence ratio worked out at 1.04 ± 0.039.
Then GGTGACAGCT, with 0.979 ± 0.023; and AATTGTTGGC, with 0.999 ± 0.035; and GTGGCACTGT, with 0.989 ± 0.019.
Then TTTATTTCCT, with 1.07 ± 0.04.
For TTCGCATCTA the value was 1.15 ± 0.056; for CGTTGAGTAT, 0.981 ± 0.019.
As for ATGTAATAAT, the switch fluorescence ratio came to 0.983 ± 0.027.
In the case of AGGGGGCGTA, the switch fluorescence ratio is 0.9896 ± 0.0086.
GAGGGTTGTG: the switch fluorescence ratio came out at 0.969 ± 0.031.
For the sequence TCCCCAGGGG, the switch fluorescence ratio stood at 1.1 ± 0.11.
Then CCATTGATGT, with 1.02 ± 0.023.
Then GAGGTTTCTT, with 1.01 ± 0.0048.
For TACGGGACTT the value was 1.26 ± 0.033.
Turning to GTCGGGGGGC, the switch fluorescence ratio was 0.985 ± 0.021.
For the sequence TTACACTGTG, the switch fluorescence ratio was determined as 1.001 ± 0.0054.
Then ATATGGCCGT, with 0.994 ± 0.023; and TTTTACGTGC, with 1.02 ± 0.05.
As for ACGCGCGTGT, the switch fluorescence ratio came to 1.02 ± 0.017.
As for ATGACGGTGG, the switch fluorescence ratio was determined as 0.94 ± 0.014.
For TTGTAATTCG, the switch fluorescence ratio was found to be 1.02 ± 0.05.
For CCATTTGTT the value was 1.04 ± 0.035; for AGGTAACTGG, 1.001 ± 0.00096.
Turning to GGCATATGCG, the switch fluorescence ratio amounted to 1.013 ± 0.0068.
Then AAGGTTCATA, with 1.01 ± 0.044; and CGAATGGGGT, with 0.985 ± 0.039; and GTGGGAAGTC, with 0.965 ± 0.04.
Then TGTGAAGAAA, with 0.977 ± 0.06.
For AGTTGTGTGC the value was 0.952 ± 0.044; for GTCATTTTGG, 1.03 ± 0.036.
For the sequence GCTTAACGCT, the switch fluorescence ratio was 0.999 ± 0.019.
On to GGGGAAGTGG, for which the switch fluorescence ratio turned out to be 1 ± 0.026.
Then ATGTTGGTAC, with 1.04 ± 0.02; and AATACTAAGG, with 1.04 ± 0.007.
Then TTTTTGGGCG, with 1.01 ± 0.022; and TTTAAATATT, with 1.02 ± 0.031; and CGTGCATTGA, with 1.03 ± 0.022.
For TGTGTGTGGT the value was 1.006 ± 0.0062; for CAGGGGGGAA, 1.024 ± 0.0064; for CAAGCGTTTC, 1.06 ± 0.024.
TCGTAAACTT: the switch fluorescence ratio came out at 1.025 ± 0.005.
For the sequence GATGATCAG, the switch fluorescence ratio is 0.978 ± 0.035.
Regarding AGGGGACAAA, the switch fluorescence ratio was determined as 1 ± 0.035.
As to GATTTTTATT, the switch fluorescence ratio was determined as 0.988 ± 0.025.
On to CTGGGGAGAG, for which the switch fluorescence ratio is 1.01 ± 0.026.
For TTACCGGATT the value was 0.993 ± 0.022.
For CGTGCTTAGT the value was 1.02 ± 0.022.
For TAATTATCCG the value was 1.05 ± 0.044; for TATTTAGGGC, 1.04 ± 0.052; for TTTTCGTAAT, 2.26 ± 1.9.
For the sequence TGGGGTATAT, the switch fluorescence ratio came to 0.996 ± 0.015.
On to GATTGGTACT, for which the switch fluorescence ratio was determined as 1 ± 0.02.
For AAGGGTCCCG the value was 0.9735 ± 0.0027; for AATTTGCTTT, 0.986 ± 0.036; for TGGGTTGGAG, 0.9949 ± 0.0067.
For GGGTAATAAG, the switch fluorescence ratio was determined as 0.993 ± 0.035.
